Assay results published in paper PMC9734137 (2022).
Like-named read-outs stand apart in the source and are kept apart here.

Legend:
WT SARS2 RBD [1] = target: T1, WT SARS2 RBD (SARS-CoV-2, UniProt P0DTC2 321-591); assay: SPR
SARS1 RBD [2] = target: SARS1 RBD (SARS-CoV-1); assay: SPR
WT SARS2 RBD [3] = target: T1, WT SARS2 RBD; assay: SPR; remark: listed apart in the source
SARS1 RBD [4] = target: SARS1 RBD (SARS-CoV-1); assay: SPR; remark: listed apart in the source
WT SARS2 RBD [5] = target: T1, WT SARS2 RBD; assay: ELISA

B1: aSA3 (VHH)
VHH: QVQLVESGGGLVQPGGSLRLSCAASGFTSDHYALAWFRQAPGKEREGVSCIDSDGNPFYADSVKGRFTGSRDNAKNTVYLQMNSLKLEDTAVYYCAAGLWYGRSLNSFDYDYWGQGTQVTVSS
koff (WT SARS2 RBD [1]): 9.77e-05 s⁻¹ | koff (SARS1 RBD [2]): 0.000364 s⁻¹

B2: aSA3-Fc (Fc fusion)
chain: B1 VHH
koff (WT SARS2 RBD [3]): 1.44e-05 s⁻¹ | koff (SARS1 RBD [4]): 8.26e-05 s⁻¹ | EC50 (WT SARS2 RBD [5]): 0.74 nM
